In article PMC11411725:

Target: vCCI (viral CC chemokine inhibitor), wild type, from rabbitpox (rabbitpox), O10647
Assay: SEC-MALS
Conditions: remark: other sources report otherwise

B1: CCL17 (CC chemokine ligand 17, TARC), wild type, Q92583 24-94 (ligand)
chain: ARGTNVGRECCLEYFKGAIPLRKLKTWYQTSEDCSRDAIVFVTVQGRAICSDPNNKRVKNAVKYLQSLERS
- stoichiometry N: 1
